The source of these data is patent US20160178646A1, “METHODS FOR DETECTING AMYLOID BETA AMYLOIDOSIS” (Washington University, priority 2011, published 2016).

A short description of the data set: Aβ SILK tracer kinetics in CSF with compartmental model of Aβ turnover. The class given is in vivo, human. As to conditions: for FTR faster: cognitively normal, amyloid positive group compared to cognitively normal, amyloid negative group; for FTR, Mean(95% confidence limits) / kex42 (Aβ42 exchange rate), Mean(95% confidence limits): multivariate ANOVA; for FTR (fractional turnover rate): mean ± StDev. An excerpt:
These human studies took place at the Washington University School of Medicine in St. Louis and were approved by the Washington University Human Studies Committee and the General Clinical Research Center (GCRC) Advisory Committee. All participants completed informed written consent. One hundred and one participants were enrolled for these studies comprising 57 men (aged from 60.4 to 87.7) and 44 women (aged 63.8 to 85.2). Deposition of amyloid plaques was quantified in 62 subjects based on the mean cortical binding potential (MCBP) score of [^11C]PIB-PET.^15 PET PIB scans were performed within 3 years before or after the SILK tracer study date. Cognitive status using the Clinical Dementia Rating sum of boxes score (CDR-SB16) and ApoE genotyping^33 was assessed in all subjects.
The procedure for stable isotope amino acid tracer administration and sample collection was previously described.^12 Briefly, intravenous and intrathecal lumbar catheters were placed between 7:00 AM and 9:00 AM, and the collection of samples was started between 8:00 AM and 10:00 AM. After initial CSF and plasma baseline samples were collected, each participant was infused with a bolus of 3 mg/kg L-[U-^13C6] leucine for 10 minutes, followed by a constant infusion (2 mg/kg/h) for the remainder of the first 9 hours. Blood samples (12 mL) were obtained hourly for the first 16 h and every other hour thereafter. CSF samples (6 mL) were obtained hourly throughout each study. Aliquots of plasma and CSF were frozen at −80° C. immediately in 1 mL polypropylene tubes after being collected for subsequent determination of plasma leucine and CSF Aβ isoform peptide enrichment. The sample collection for one subject was truncated at 4 hours; this subject was excluded from the analysis.
All samples were processed and measured in a blinded fashion with data results and individual analysis completed before unblinding to participant's disease state. The procedure for sample preparation, data acquisition and processing were previously described.^34 Briefly, 1 mL of CSF from each hour of collection and media standards were thawed. Aβ was purified and processed for mass spectrometry by immunoprecipitation with a mid-domain binding antibody HJ5.1 (Aβ amino acids 13 to 28). […] The purified Aβ was then digested with Lys-N (Metalloendopeptidase) and isotopic enrichment of Aβ c-terminal isoform specific peptides (Aβ29-38, Aβ29-40, and Aβ29-42) were measured using a nano-liquid chromatography (NanoLC-2D-Ultra system (Eksigent Technologies, CA USA)) coupled to a TSQ Vantage triple quadrupole mass spectrometer (ThermoScientific, San Jose USA) that was equipped with a column-heating nanospray source (Phoenix S&T, Chester Pa. USA). Xcalibur V2.1 was used to collect and quantify the mass spectrometry data for SILK. […] Samples for 100 subjects (including the prior 24 subjects) were analyzed utilizing the more specific and sensitive method34 in this study.
The time and magnitude of the peak maximum was determined by fitting a 2nd order curve to enrichment vs. time over an 11-h interval centered at the approximate peak maximum. The compartmental model previously developed and applied to Autosomal Dominant AD participants was used to determine model-dependent parameters of Aβ turnover kinetics (FIG. 18).^14 Modeling was performed using the Population Kinetics (PopKinetics, version 1.0.1) companion application to the SAAM II modeling program (version 1.2.1, SAAM Institute, University of Washington, Seattle). PopKinetics performed an iterative two-stage approach to optimize kinetic parameters to individual participants as well as the population as a whole by including a term that represents the population mean and standard deviation for each adjustable parameter such that variability of the kinetic parameters across the population is minimized. […] The model consists of a plasma leucine pool, a subsystem for production of Aβ through APP and C99, turnover of Aβ, and transport of Aβ to CSF.

“Aβ40: naturally occurring amyloid-beta isoform Aβx-40, where x is any N-terminal cleavage site; endogenous, measured as biomarker” gave an FTR faster of 17%. In addition, the “FTR, Mean(95% confidence limits)” value (CDR = 0 Amyloid+) is on record as “CDR = 0 Amyloid+ 0.096(0.083-0.109)”. In addition, the “FTR, Mean(95% confidence limits)” value (CDR = 0 Amyloid−) is listed as “CDR = 0 Amyloid− 0.082(0.068-0.096)”. The “FTR, Mean(95% confidence limits)” value (CDR > 0 Amyloid+) is listed as “CDR > 0 Amyloid+ 0.074(0.067-0.081)”. In addition, where the note is “CDR > 0 Amyloid−”, the “FTR, Mean(95% confidence limits)” value is “CDR > 0 Amyloid− 0.094(0.083-0.106)”. Also, the “mean FTR” value (not significantly different by univariate analysis of amyloid status) is recorded as 0.082±0.022.

In the case of “Aβ42: naturally occurring amyloid-beta isoform Aβx-42, where x is any N-terminal cleavage site; endogenous, measured as biomarker”, the FTR faster turned out to be 57%. For the same substance, the “correlation between annualized change in fibrillar amyloid by PET PIB and FTR Aβ42 (R)” value (Amyloid positive and Amyloid negative participants) was 0.56. Besides, under “amyloid negative participants”, the exchange rate constant is 0.006±0.032 pools/h and the “FTR (fractional turnover rate)” value was 0.094±0.031 pools/h. In addition, where the note is “amyloid positive participants”, the exchange rate constant is on record as 0.049±0.054 pools/h and the “FTR (fractional turnover rate)” value stood at 0.112±0.035 pools/h. Under “clinically normal amyloid negative group”, this substance came in with an FTR of 0.091 pool/h. The FTR (clinically normal amyloid positive group) is 0.143 pool/h. For the same substance, the “deposition rate constant (into amyloid plaques)” value (difference of FTR, clinically normal amyloid positive minus negative) came to 0.052 pool/h. Further, the “increase in exchange of newly synthesized soluble Aβ42” value (in amyloidosis) is “ten-fold increase”. Further, for the setting “Amyloid+”, the “kex42 (Aβ42 exchange rate), Mean(95% confidence limits)” value is given as “Amyloid+ 0.059(0.042-0.076)”. Besides, the “FTR, Mean(95% confidence limits)” value (Amyloid+ participants, CSF SILK) is recorded as “Amyloid+ 0.124 (0.112-0.135)”. For the same substance, under “Amyloid−”, the “kex42 (Aβ42 exchange rate), Mean(95% confidence limits)” value is on record as “Amyloid− 0.006(−0.016-0.029)”. In addition, the “FTR, Mean(95% confidence limits)” value (Amyloid− participants, CSF SILK) is “Amyloid− 0.101 (0.086-0.115)”.
